From patent US20040038340

How the values were obtained:
[1] = target: T1, HPr(His)6 from B. subtilis, P08877
T1 chain: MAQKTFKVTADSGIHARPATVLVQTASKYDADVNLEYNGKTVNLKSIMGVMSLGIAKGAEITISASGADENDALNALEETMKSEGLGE

[2] = target: T2, P-Ser-HPr(His)6 from B. subtilis, P08877
T2 chain: T1 chain

B1: His-tagged L. casei HprK (protein)
chain: MADSVTVRQLVKATKLEVYSGEEYLDQRQVVLSDISRPGLELTGYFNYYPHERIQLFGRTEISFARNMSSEERLLILKRMATEDTPAFLVSRGLEAPAEMITAATAAHIPVLGSRLPTTRLSSLITEYLDSQLAERRSMHGVLVDIYGLGVLITGDSGVGKSETALELVQRGHRLIADDRVDVYQQDEQTIVGAAPPILSHLLEIRGLGIIDVMNLFGAGAVREDTTISLIVHLENWTPDKTFDRLGSGEQTQLIFDVPVPKITVPVKVGRNLAIIIEVAAMNFRAKSMGYDATKTFEKNLNHLIEHNEETDQNSSGDK
Question: Which “HPr kinase activity (ATP-dependent HPr phosphorylation, non-denaturing gel)” value [1] does the source give for B1 here?
Answer: HprK of L. casei was indeed found to be bifunctional

Question: What about the “P-Ser-HPr phosphatase activity (non-denaturing gel)” value [2] of the same protein?
Answer: HprK of L. casei was indeed found to be bifunctional
